Reference: patent publication US20240400657A1 (MorphoSys, published 2024)

T1: C5aR expressed on purified human neutrophils (human, UniProt P21730 1-350)
T1 sequence (looked up): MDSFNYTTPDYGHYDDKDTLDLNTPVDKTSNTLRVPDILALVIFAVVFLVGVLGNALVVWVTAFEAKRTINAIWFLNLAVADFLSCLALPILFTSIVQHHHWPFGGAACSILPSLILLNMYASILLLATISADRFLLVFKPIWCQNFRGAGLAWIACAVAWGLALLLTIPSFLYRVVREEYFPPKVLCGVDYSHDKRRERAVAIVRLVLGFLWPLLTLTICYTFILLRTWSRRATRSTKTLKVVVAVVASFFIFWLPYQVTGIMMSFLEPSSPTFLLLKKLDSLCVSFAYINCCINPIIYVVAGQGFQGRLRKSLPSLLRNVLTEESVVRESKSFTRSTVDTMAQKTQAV

T2: full length cynomolgus C5aR stably expressed on CHO Flp-In cells (cynomolgus monkey (Macaca fascicularis))
T2 chain: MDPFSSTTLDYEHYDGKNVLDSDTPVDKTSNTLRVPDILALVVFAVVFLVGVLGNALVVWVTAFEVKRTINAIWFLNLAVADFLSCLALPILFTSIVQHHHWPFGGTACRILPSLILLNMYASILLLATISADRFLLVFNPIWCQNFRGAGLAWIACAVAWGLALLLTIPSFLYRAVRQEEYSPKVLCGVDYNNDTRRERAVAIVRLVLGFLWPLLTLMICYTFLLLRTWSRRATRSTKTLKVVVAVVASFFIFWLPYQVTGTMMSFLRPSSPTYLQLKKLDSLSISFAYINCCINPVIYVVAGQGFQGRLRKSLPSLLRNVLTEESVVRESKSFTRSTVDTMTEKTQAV

T3: engineered version of human C5aR expressed on CHO cells of the PathHunter β-arrestin assay (DiscoveRx) (human, UniProt P21730 1-350)
T3 sequence (looked up): T1 sequence (looked up)

T4: C5aR expressed on purified cynomolgus neutrophils (cynomolgus monkey (Macaca fascicularis))
T4 construct: Endogenous receptor on neutrophils from whole blood of three animals; also called cynomolgus C5aR expressed endogenously
T4 chain: T2 chain

T5: full length human C5aR stably expressed on CHO Flp-In cells (human, UniProt P21730 1-350)
T5 construct: also called human C5aR expressed on CHO cells
T5 sequence: T1 sequence (looked up)

B1: RefMAB #1 (antibody, human IgG1, kappa, V domains shown)
VH: EVQLVESGGGLVQPGGSLRLSCAASGFTFSSYVMHWVRQATGKGLEWVSAIDTGGGTYYADSVKGRFTISRENAKNSLYLQMNSLRAGDTAVYYCARDYYYYASGSYYKAFDIWGQGTMVTVSS
VL: EIVLTQSPGTLSLSPGERATLSCRASQSVSSRYLAWYQQKPGQAPRLLIYGASSRATGIPDRFSGSGSGTDFTLTISRLEPEDFAVYYCQQYGSPLTFGQGTKLEIKR
notes: also called IPH5401; NNC0215-0384
B2: Human C5a (ligand)
chain: TLQKKIEEIAAKYKHSVVKKCCYDGACVNNDETCEQRAARISLGPRCIKAFTECCVVASQLRANISHKDMQLGR

Legend:
[1] = molecular target: T1, C5aR expressed on purified human …; assay: cell-based or functional assay
[2] = molecular target: T1, C5aR expressed on purified human …; assay: FACS on purified human neutrophils, IgG titration
Method: (§1) Neutrophils were purified from EDTA-whole blood samples using a MACSexpress® Neutrophil Isolation Cocktail from Miltenyi Biotec. Briefly, using this kit, cells are isolated using magnetic labeling and negative magnetic separation. […] Measurements were done at the FACS Array device. FACS data were evaluated using FlowJo™, entered into GraphPad® Prism (v4.0) and fitted to the sigmoidal dose-response curve using non-linear regression to calculate the EC50.

[3] = molecular target: T2, full length cynomolgus C5aR stably …; assay: FACS, CHO Flp-In cells expressing cynomolgus C5aR, single IgG concentration
Method: (§2) The C5aR-CHO Flp-In™ cell lines were blocked and IgGs were added either in serial dilutions or at a single (high) concentration of 300 nM. For detection of IgG binding, an R-phycoerythrin (R-PE) conjugated anti-human IgG (Fc-gamma fragment specific)2 antibody was added and fluorescence was measured using the FACS Array or Novocyte device.

[4] = molecular target: T3, engineered version of human C5aR …; assay: cell-based or functional assay
[5] = molecular target: T3, engineered version of human C5aR …; assay: cell-based or functional assay; remark: listed apart in the source
[6] = molecular target: T1, C5aR expressed on purified human …; assay: cell-based or functional assay; remark: listed apart in the source
[7] = molecular target: T4, C5aR expressed on purified cynomolgus …; assay: FACS, purified cynomolgus neutrophils, IgG titration
Method: as §1

[8] = molecular target: T5, full length human C5aR stably expressed …; assay: FACS on Flp-In CHO cells, IgG titration
Method: as §2

Binder	IgG concentration for 50% inhibition of CD11b upregulation, granulocytes, 15 nM human C5a [1] [nM]	IgG concentration for 50% inhibition of CD11b upregulation, granulocytes, 150 nM human C5a [1] [nM]	EC50 [2] [nM]	binding result [3]	Activity of human C5a EC50 (nM) in presence of 50 nM anti-C5aR antibody, β-arrestin recruitment [4] [nM]	[%] inhibition at 1.2 nM C5a and 50 nM IgG, β-arrestin recruitment [5] [%]	[%] inhibition at 11 nM C5a and 50 nM IgG, β-arrestin recruitment [5] [%]	[%] inhibition at 100 nM C5a and 50 nM IgG, β-arrestin recruitment [5] [%]	CD11b assay, granulocytes, 15 nM C5a, 20 minutes of IgG incubation: IC50 [6] [nM]	CD11b assay, granulocytes, 15 nM C5a, 300 minutes of IgG incubation: IC50 [6] [nM]	CD11b assay, monocytes, 15 nM C5a, 20 minutes of IgG incubation: IC50 [6] [nM]	CD11b assay, monocytes, 15 nM C5a, 300 minutes of IgG incubation: IC50 [6] [nM]	binding result [7]	EC50 [8] [nM]	Activity of human C5a EC50 (nM) in absence of anti-C5aR antibody, β-arrestin recruitment (PathHunter) [4] [nM]
B1	12	291	3.1	no binding (tested: 300 nM)	10	84.2	38.9	6.4	10.2	6.5	1.8	5.3	no binding (tested: ~250 nM)	1.1	–
B2	–	–	–	–	–	–	–	–	–	–	–	–	–	–	2.9
